Patent US20180339057A1 (Novo Nordisk, published 2018)
Substitutions are numbered along the chain they refer to. Numbers in names are those of the source.

B1: SEPATSGSETPGTSESATPESGPGTSTEPSEG-MIC-1-des-N3 (M57L, M86L) (ligand)
chain: SEPATSGSETPGTSESATPESGPGTSTEPSEGARGDHCPLGPGRCCRLHTVRASLEDLGWADWVLSPREVQVTMCIGACPSQFRAANLHAQIKTSLHRLKPDTVPAPCCVPASYNPLVLIQKTDTGVSLQTYDDLLAKDCHCI
notes: homodimer; no protractor
B2: SEPATSGCETPGTSESATPESGPGTSTEPSEG-MIC-1, des-N3, M57L, M86L (Cys mutation S(-25)C) (ligand)
chain: B1 chain with S8C
notes: homodimer; no protractor
B3: Compound 03 (ligand)
chain: B1 chain with S6C, L88M, L117M
modifications: Cys-27 (residue 6 of SEQ ID NO: 291): S{Beta}-[2-[2-[[2-[2-[2-[[2-[2-[2-[[(4S)-4-carboxy-4-(15-carboxypentadecanoylamino)butanoyl]amino]ethoxy]ethoxy]acetyl]amino]ethoxy]ethoxy]acetyl]amino]ethylamino]-2-oxoethyl]Cys (protractor of Example 10.2)
notes: homodimer, two protractors per dimer
B4: Compound 16 (ligand)
chain: B1 chain with K100R, K122R, K138R
modifications: alpha-amino group of the N-terminal Ser-32 (residue 1 of SEQ ID NO: 312): N-[4-[[[2-[2-[2-[[2-[2-[2-[[(4S)-4-carboxy-4-(17-carboxyheptadecanoylamino)butanoyl]amino]ethoxy]ethoxy]acetyl]amino]ethoxy]ethoxy]acetyl]amino]methyl]phenyl]methyl (protractor of Example 10.1)
notes: homodimer, two protractors per dimer; also called dialkylated
B5: Compound 21 (ligand)
chain: B1 chain with A4C, L88M, L117M
modifications: Cys-29 (residue 4 of SEQ ID NO: 288): S{Beta}-[2-[2-[[2-[2-[2-[[2-[2-[2-[[(4S)-4-carboxy-4-[16-(1H-tetrazol-5-yl)hexadecanoylamino]butanoyl]amino]ethoxy]ethoxy]acetyl]amino]ethoxy]ethoxy]acetyl]amino]ethylamino]-2-oxoethyl]Cys (protractor of Example 10.10)
notes: as for B3
B6: Compound 17 (ligand)
chain: B1 chain with A4C, L88M, L117M
modifications: Cys-29 (residue 4 of SEQ ID NO: 288): S{Beta}-[2-[2-[[2-[2-[2-[[2-[2-[2-[[(4S)-4-carboxy-4-(16-sulfohexadecanoylamino)butanoyl]amino]ethoxy]ethoxy]acetyl]amino]ethoxy]ethoxy]acetyl]amino]ethylamino]-2-oxoethyl]Cys (protractor of Example 10.6)
notes: as for B3
B7: Compound 19 (ligand)
chain: B1 chain with A4C, L88M, L117M
modifications: Cys-29 (residue 4 of SEQ ID NO: 288): S{Beta}-[2-[[(1S)-1-carboxy-5-[[2-[2-[2-[[2-[2-[2-[[(4S)-4-carboxy-4-[10-(4-carboxyphenoxy)decanoylamino]butanoyl]amino]ethoxy]ethoxy]acetyl]amino]ethoxy]ethoxy]acetyl]amino]pentyl]amino]-2-oxoethyl]Cys (protractor of Example 10.8)
notes: as for B3
B8: Compound 08 (ligand)
chain: B1 chain with S30C
modifications: Cys-3 (residue 30 of SEQ ID NO: 293): S{Beta}-[2-[2-[[2-[2-[2-[[2-[2-[2-[[(4S)-4-carboxy-4-(17-carboxyheptadecanoylamino)butanoyl]amino]ethoxy]ethoxy]acetyl]amino]ethoxy]ethoxy]acetyl]amino]ethylamino]-2-oxoethyl]Cys (protractor of Example 10.4)
notes: as for B3
B9: SEPATSGSETPGTSESACPESGPGTSTEPSEG-MIC-1, des-N3, M57L, M86L (Cys mutation T(-15)C) (ligand)
chain: B1 chain with T18C
notes: homodimer; no protractor
B10: Compound 01 (ligand)
chain: B1 chain with A4C, L88M, L117M
modifications: Cys-29 (residue 4 of SEQ ID NO: 288): S{Beta}-[2-[2-[[2-[2-[2-[[2-[2-[2-[[(4S)-4-carboxy-4-(17-carboxyheptadecanoylamino)butanoyl]amino]ethoxy]ethoxy]acetyl]amino]ethoxy]ethoxy]acetyl]amino]ethylamino]-2-oxoethyl]Cys (protractor of Example 10.4)
notes: as for B3
B11: Compound 07 (ligand)
chain: B1 chain with T18C
modifications: Cys-15 (residue 18 of SEQ ID NO: 292): S{Beta}-[2-[2-[[2-[2-[2-[[2-[2-[2-[[(4S)-4-carboxy-4-(17-carboxyheptadecanoylamino)butanoyl]amino]ethoxy]ethoxy]acetyl]amino]ethoxy]ethoxy]acetyl]amino]ethylamino]-2-oxoethyl]Cys (protractor of Example 10.4)
notes: as for B3
B12: SEPATSCSETPGTSESATPESGPGTSTEPSEG-MIC-1, des-N3, M57L, M86L (Cys mutation G(-26)C) (ligand)
chain: B1 chain with G7C
notes: homodimer; no protractor
B13: Compound 05 (ligand)
chain: B1 chain with G7C
modifications: Cys-26 (residue 7 of SEQ ID NO: 289): S{Beta}-[2-[2-[[2-[2-[2-[[2-[2-[2-[[(4S)-4-carboxy-4-(17-carboxyheptadecanoylamino)butanoyl]amino]ethoxy]ethoxy]acetyl]amino]ethoxy]ethoxy]acetyl]amino]ethylamino]-2-oxoethyl]Cys (protractor of Example 10.4)
notes: as for B3
B14: Compound 20 (ligand)
chain: B1 chain with A4C, L88M, L117M
modifications: Cys-29 (residue 4 of SEQ ID NO: 288): S{Beta}-[2-[[(1S)-1-carboxy-5-[[2-[2-[2-[[2-[2-[2-[[(4S)-4-carboxy-4-[12-(4-carboxyphenoxy)dodecanoylamino]butanoyl]amino]ethoxy]ethoxy]acetyl]amino]ethoxy]ethoxy]acetyl]amino]pentyl]amino]-2-oxoethyl]Cys (protractor of Example 10.9)
notes: as for B3
B15: Compound 11 (ligand)
chain: B1 chain with A4C
modifications: Cys-29 (residue 4 of SEQ ID NO: 290): S{Beta}-[2-[2-[[2-[2-[2-[[2-[2-[2-[[(4S)-4-carboxy-4-(17-carboxyheptadecanoylamino)butanoyl]amino]ethoxy]ethoxy]acetyl]amino]ethoxy]ethoxy]acetyl]amino]ethylamino]-2-oxoethyl]Cys (protractor of Example 10.4)
notes: as for B3
B16: Compound 02 (ligand)
chain: B1 chain with S6C, L88M, L117M
modifications: Cys-27 (residue 6 of SEQ ID NO: 291): S{Beta}-[2-[2-[[2-[2-[2-[[2-[2-[2-[[(4S)-4-carboxy-4-(17-carboxyheptadecanoylamino)butanoyl]amino]ethoxy]ethoxy]acetyl]amino]ethoxy]ethoxy]acetyl]amino]ethylamino]-2-oxoethyl]Cys
notes: as for B3
B17: SEPATCGSETPGTSESATPESGPGTSTEPSEG-MIC-1, des-N3 (Cys mutation S(-27)C) (ligand)
chain: B1 chain with S6C, L88M, L117M
notes: homodimer; no protractor
B18: Compound 18 (ligand)
chain: B1 chain with A4C, L88M, L117M
modifications: Cys-29 (residue 4 of SEQ ID NO: 288): S{Beta}-[2-[[(5S)-5-carboxy-5-[[2-[2-[2-[[2-[2-[2-[4-[17-(1H-tetrazol-5-yl)heptadecanoylsulfamoyl]butanoylamino]ethoxy]ethoxy]acetyl]amino]ethoxy]ethoxy]acetyl]amino]pentyl]amino]-2-oxoethyl]Cys (protractor of Example 10.7)
notes: as for B3
B19: Compound 06 (ligand)
chain: B1 chain with S8C
modifications: Cys-25 (residue 8 of SEQ ID NO: 303): S{Beta}-[2-[2-[[2-[2-[2-[[2-[2-[2-[[(4S)-4-carboxy-4-(17-carboxyheptadecanoylamino)butanoyl]amino]ethoxy]ethoxy]acetyl]amino]ethoxy]ethoxy]acetyl]amino]ethylamino]-2-oxoethyl]Cys (protractor of Example 10.4)
notes: as for B3
B20: Compound 04 (ligand)
chain: B1 chain with S6C, L88M, L117M
modifications: Cys-27 (residue 6 of SEQ ID NO: 291): S{Beta}-[2-[2-[[2-[2-[2-[[2-[2-[2-[[(4S)-4-carboxy-4-(13-carboxytridecanoylamino)butanoyl]amino]ethoxy]ethoxy]acetyl]amino]ethoxy]ethoxy]acetyl]amino]ethylamino]-2-oxoethyl]Cys (protractor of Example 10.3)
notes: as for B3
B21: A(GPEQGQEP)3-MIC-1-Δ1-3 (ligand)
chain: AGPEQGQEPGPEQGQEPGPEQGQEPGDHCPLGPGRCCRLHTVRASLEDLGWADWVLSPREVQVTMCIGACPSQFRAANMHAQIKTSLHRLKPDTVPAPCCVPASYNPMVLIQKTDTGVSLQTYDDLLAKDCHCI
B22: MIC-1(R2A,N3E,A81E) (ligand)
chain: AAEGDHCPLGPGRCCRLHTVRASLEDLGWADWVLSPREVQVTMCIGACPSQFRAANMHAQIKTSLHRLKPDTVPAPCCVPESYNPMVLIQKTDTGVSLQTYDDLLAKDCHCI
B23: SEPATSGSETPGTSESATPESGPGTSTEPS-MIC-1-Δ1-3 (ligand)
chain: SEPATSGSETPGTSESATPESGPGTSTEPSGDHCPLGPGRCCRLHTVRASLEDLGWADWVLSPREVQVTMCIGACPSQFRAANMHAQIKTSLHRLKPDTVPAPCCVPASYNPMVLIQKTDTGVSLQTYDDLLAKDCHCI
B24: SEPATSGSETPGTSESATPESGPGTSTEPSEG-MIC-1-Δ1-3 (ligand)
chain: SEPATSGSETPGTSESATPESGPGTSTEPSEGGDHCPLGPGRCCRLHTVRASLEDLGWADWVLSPREVQVTMCIGACPSQFRAANMHAQIKTSLHRLKPDTVPAPCCVPASYNPMVLIQKTDTGVSLQTYDDLLAKDCHCI
B25: (SEPATSGSETPG)2-MIC-1-Δ1-3(M86L) (ligand)
chain: SEPATSGSETPGSEPATSGSETPGGDHCPLGPGRCCRLHTVRASLEDLGWADWVLSPREVQVTMCIGACPSQFRAANMHAQIKTSLHRLKPDTVPAPCCVPASYNPLVLIQKTDTGVSLQTYDDLLAKDCHCI
B26: (SEPATSGSETPG)2-MIC-1-Δ1-3(M57L, M86L) (ligand)
chain: B25 chain with M78L

molecular target: T1, human MIC-1 receptor (hGFRAL, GDNF family receptor alpha like), full length (human, UniProt Q6UXV0 19-394); experiment: SPA: displacement of 50 pM human [125I]-MIC-1 from BHK21-hGFRAL-IRES-hRET cell membranes
T1 construct: whole, on cells
T1 sequence (looked up): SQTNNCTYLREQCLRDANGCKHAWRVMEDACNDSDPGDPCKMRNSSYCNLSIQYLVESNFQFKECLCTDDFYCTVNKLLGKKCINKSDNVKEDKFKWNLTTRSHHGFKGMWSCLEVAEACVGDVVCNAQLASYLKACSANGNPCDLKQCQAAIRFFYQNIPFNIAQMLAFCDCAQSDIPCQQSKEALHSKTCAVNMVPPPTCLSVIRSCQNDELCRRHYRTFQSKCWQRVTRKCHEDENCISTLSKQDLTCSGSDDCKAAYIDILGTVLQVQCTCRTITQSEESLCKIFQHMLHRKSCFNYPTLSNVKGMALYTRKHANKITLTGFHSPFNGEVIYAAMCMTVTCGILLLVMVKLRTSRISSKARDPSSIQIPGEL
Protocol: Binding potencies of MIC-1 compounds were calculated by IC50 of displacement curves.
BHK21-hGFRAL-IRES-hRET cells were cultured at +37° C. in a humidified atmosphere with 5% CO₂ in complete medium consisting of DMEM with high glucose and sodium pyrovate, heat inactivated 10% Fetal Bovine Serum, 1% Penicillin-Streptomycin, 1 mg/ml G418-Geneticin and 400 ug/ml Hygromycin. Cells were washed twice in ice cold Dulbecco's phosphate-buffered saline (DPBS) and detached mechanically by scraping, transferred in ice cold DPBS into conical centrifuge tubes and centrifuged for 5 min at 1500 rpm at +20° C. Cell pellet was resuspended in a total amount of 10 ml ice cold homogenization buffer A (50 mM Tris, 2.5 mM EDTA, adjust pH7.4 with one EDTA-free protease inhibitor cocktail tablet/50 ml) and homogenized for 20 seconds. The homogenate was centrifuged at 16000 rpm in 20 minutes at +4° C. The supernatant was discarded and the pellet was reconstituted in 10 ml homogenization buffer B (50 mM Tris, 320 mM Sucrose, adjust pH 7.4 with one EDTA-free protease inhibitor cocktail tablet/50 ml) and homogenized for 20 seconds and centrifuged at 16000 rpm in 20 minutes at +4° C. This procedure was repeated one more time. The supernatant was discarded and the pellet was reconstituted in 3 ml homogenization buffer B and homogenized for 10 seconds at low speed. Protein concentration was determined by standard Bradford method and 1.5 mg protein/tube was aliquoted to cryotubes and stored at −80° C. Binding assays were performed in white 96-well plates in a total volume of 200 μl per well. Wheat germ agglutinin SPA beads were reconstituted in assay buffer (50 mM Tris/HCl, 4.5 mM MgCl₂, 0.02% Tween 20 and 0.25% Ovalbumin pH 7.4) and mixed with membrane preparation to give a final concentration of 0.5 mg SPA beads and 10 μg total protein per well. […] The plate was sealed and incubated at +22° C. for 2 hours in a plate shaker set at 350 rpm and thereafter centrifuged at 1500 rpm for 10 minutes prior to reading of SPA bead light emission.

Binder | IC50 [nM]
B1 | 119
B2 | 43
B3 | 11
B4 | 11
B5 | 1
B6 | 4.7
B7 | 17
B8 | 56
B9 | 29
B10 | 3.8
B11 | 29
B12 | 36
B13 | 23
B14 | 6.5
B15 | 29
B16 | 4.9
B17 | 10
B18 | 1.3
B19 | 21
B20 | 17

molecular target: T1, human MIC-1 receptor (hGFRAL, GDNF …); experiment: cell-based or functional assay

Binder | Luciferase + 0.1% HSA NNDK EC50 (pM) | Luciferase NNDK EC50 (pM)
B1 | 64 | 85
B2 | 34 | 57
B3 | 106 | 96
B4 | 51 | 63
B5 | 56 | 53
B6 | 65 | 43
B7 | 62 | 45
B8 | 651 | 139
B9 | 115 | 125
B10 | 59 | 72
B11 | 198 | 121
B12 | 26 | 35
B13 | 63 | 57
B14 | 77 | 49
B15 | 62 | 55
B16 | 107 | 123
B17 | 45 | 80
B18 | 67 | 66
B19 | 61 | 81
B20 | 58 | 90

molecular target: T1, human MIC-1 receptor (hGFRAL, GDNF …); experiment: cell-based or functional assay; remark: another data set of the same source

Binder | Emax (%) | pERK EC50 (nM)
B21 | 100 | 0.8
B22 | 100 | 0.3
B23 | 100 | 0.4
B24 | 100 | 0.4
B25 | 100 | 0.4
B26 | 100 | 0.4
